Reference: the Human Domainome abundance scans (Beltran et al. 2025)
± gives the uncertainty stated by the source.

B1: Tumor protein p73, residues 487 to 549; numbered along this chain, O15350 (parent)
chain: YHADPSLVSFLTGLGCPNCIEYFTSQGLQSIYHLQNLTIEDLGALKIPEQYRMTIWRGLQDLK

Variants of: B1
Assay: abundance fitness (aPCA) (normalised: wild type 0, dead -1); higher = more abundant; growth selection in yeast, the domain comes from the species named
Conditions: Homo sapiens

Abundance fitness, by site and new letter:
L34: D -0.835 ± 0.12, E -0.638 ± 0.062, M 0.021 ± 0.051, N -0.536 ± 0.13, P -0.671 ± 0.12, Q -0.529 ± 0.073, R -0.867 ± 0.077, S -0.319 ± 0.045, T 0.018 ± 0.045, V 0.038 ± 0.028, Y -0.285 ± 0.14
Q35: A -0.019 ± 0.042, C -0.07 ± 0.083, D 0.073 ± 0.08, E 0.005 ± 0.066, F -0.142 ± 0.085, H 0.026 ± 0.055, K 0.078 ± 0.057, M -0.058 ± 0.051, N 0.192 ± 0.071, P -0.184 ± 0.073, S 0.071 ± 0.043, T -0.084 ± 0.042, V 0.055 ± 0.046, W -0.245 ± 0.041, Y 0.031 ± 0.057
N36: A -0.04 ± 0.04, C -0.567 ± 0.33, D 0.075 ± 0.039, E 0.087 ± 0.043, F -0.198 ± 0.072, G 0.013 ± 0.035, I -0.02 ± 0.073, L -0.061 ± 0.034, M -0.007 ± 0.054, P -0.053 ± 0.078, Q 0.022 ± 0.038, R 0.034 ± 0.031, S 0.046 ± 0.039, T -0.026 ± 0.059, V -0.025 ± 0.035, W -0.078 ± 0.046, Y -0.202 ± 0.091
L37: C -0.089 ± 0.082, D -0.737 ± 0.16, E -0.667 ± 0.074, F 0.02 ± 0.064, G -0.536 ± 0.044, H -0.063 ± 0.12, I -0.058 ± 0.071, K 0.001 ± 0.076, M 0.032 ± 0.05, N -0.426 ± 0.21, P -0.799 ± 0.12, Q -0.41 ± 0.13, R -0.191 ± 0.034, S -0.142 ± 0.044, T -0.039 ± 0.065, W -0.159 ± 0.054, Y 0.071 ± 0.11
T38: A -0.014 ± 0.038, C -0.073 ± 0.073, D -0.215 ± 0.16, E -0.107 ± 0.074, F -0.517 ± 0.13, G -0.088 ± 0.036, H -0.064 ± 0.068, K 0.103 ± 0.071, L -0.158 ± 0.037, M -0.13 ± 0.049, N -0.11 ± 0.12, P -0.201 ± 0.054, Q -0.018 ± 0.027, R -0.049 ± 0.028, S 0.018 ± 0.035, V -0.106 ± 0.033, W -0.415 ± 0.064, Y -0.409 ± 0.11
I39: M -0.149 ± 0.27, W -0.231 ± 0.32
E40: A 0.007 ± 0.048, C 0.033 ± 0.093, D -0.06 ± 0.071, G 0.053 ± 0.043, H -0.005 ± 0.11, K -0.141 ± 0.069, M -0.127 ± 0.054, P -0.152 ± 0.074, Q -0.124 ± 0.085, R -0.059 ± 0.035, S -0.048 ± 0.053, V -0.097 ± 0.049, W -0.085 ± 0.044, Y -0.215 ± 0.13
D41: A -0.094 ± 0.038, C -0.361 ± 0.07, E 0.119 ± 0.042, F -0.689 ± 0.16, G 0.006 ± 0.041, H -0.198 ± 0.068, I -0.9 ± 0.26, M -0.184 ± 0.075, N -0.042 ± 0.057, P -1.05 ± 0.15, Q 0.105 ± 0.057, R -0.052 ± 0.036, S 0 ± 0.031, T -0.159 ± 0.053, V -0.644 ± 0.056, W -0.885 ± 0.11, Y -0.45 ± 0.089
L42: A -0.447 ± 0.048, C -0.494 ± 0.15, D -0.618 ± 0.33, F 0.012 ± 0.07, G -0.654 ± 0.05, H -0.577 ± 0.17, I -0.215 ± 0.13, K -0.515 ± 0.079, M -0.078 ± 0.047, N -0.858 ± 0.13, P -0.696 ± 0.11, Q -0.512 ± 0.063, R -0.733 ± 0.051, S -0.785 ± 0.08, T -0.45 ± 0.062, V -0.127 ± 0.028, W 0.072 ± 0.033, Y -0.02 ± 0.098
G43: A -0.102 ± 0.053, C -0.049 ± 0.21, D -0.085 ± 0.082, E 0.07 ± 0.061, H 0.16 ± 0.11, I -0.135 ± 0.1, K 0.119 ± 0.047, L 0.033 ± 0.046, M 0.028 ± 0.066, N -0.003 ± 0.1, P -0.012 ± 0.085, Q 0.061 ± 0.046, R -0.016 ± 0.042, S -0.013 ± 0.05, T 0.003 ± 0.052, V -0.018 ± 0.053, W -0.135 ± 0.056, Y -0.005 ± 0.069
A44: C 0.02 ± 0.058, D 0.174 ± 0.085, E 0.16 ± 0.055, F 0.011 ± 0.095, G 0.072 ± 0.031, H -0.021 ± 0.063, I -0.218 ± 0.2, K 0.057 ± 0.043, L 0.06 ± 0.034, M 0.006 ± 0.05, N -0.061 ± 0.13, P -0.041 ± 0.062, Q 0.036 ± 0.052, R 0.135 ± 0.028, S 0.057 ± 0.042, T -0.046 ± 0.063, W -0.083 ± 0.038, Y -0.007 ± 0.067
L45: A -0.18 ± 0.042, C -0.016 ± 0.041
